Assay results taken from US6358924B1, “GLP-1 formulations” (Eli Lilly and Company, priority 1997, dated 2002).

Tests used:
[1] = Circular dichroism of Val^8-GLP-1 / GLP-1 secondary structure with bound DSS; type: physicochemical
From the text: A slightly larger form of Val^8-GLP-1 with DSS molecule(s) bound to it was observed on size-exclusion chromatography (SEC) and the altered secondary structure was noted by circular dichroism experiments (CD).

[2] = Solution clarity of m-cresol-preserved Val^8-GLP-1 solution with other surfactants, Example 4; type: physicochemical; conditions: m-cresol about 3 mg/ml; for clarity of Val^8-GLP-1 solution with added surfactant: 10 μl surfactant in 500 μL of 1 mg/ml peptide, ambient temperature about 3 hours; for solution appearance: without any additives
Experimental: A formulation of the invention was prepared by dissolving Val^8-GLP-1(7-37)OH at 1 mg/ml in an aqueous solution containing 16 mg/ml glycerin and 10 mM sodium tribasic phosphate. The solution was adjusted to about pH 8.0 using 2N HCl.
(§1) The preservative m-cresol was prepared at a concentration of 100 mg/ml in absolute ethanol.
Various formulation excipients listed herein were added to 500 μL aliquots of the Val^8-GLP-1(7-37)OH solution in 3-ml glass vials. After stirring for about 45 minutes at ambient temperature, 15.8 μl of a 100 mg/ml m-cresol solution in absolute ethanol was added to give a m-cresol concentration of about 3 mg/ml.
Without any additives, the Val^8-GLP-1 solution becomes hazy at both ambient temperature and at 4° C.

[3] = test system: beagle dogs clamped at an elevated glycemic level (200 mg/dl); experiment: Hyperglycemic clamp, glucose infusion rate after subcutaneous injection; type: in vivo; conditions: formulation containing DSS
Experimental: A portion of the formulation from Example 2 was injected subcutaneously into beagle dogs that were clamped at an elevated glycemic level (200 mg/dl). 3 nmoles/kg of Val^8-GLP-1 were injected into each animal. Glucose infusion rates needed to maintain hyperglycemia were measured for 2.5 hours after the injections and compared to injections of a vehicle control solution.

[4] = Storage stability (solution clarity, HPLC purity) of m-cresol-preserved Val^8-GLP-1(7-37)OH formulations with DSS, Example 1; type: physicochemical; conditions: for time solution remained clear: 4° C.; for HPLC purity after storage: 6 weeks at 4° C.
Experimental: A formulation of the invention was prepared by dissolving Val^8-GLP-1(7-37)OH at 1 mg/ml in an aqueous solution containing 16 mg/ml glycerin and 10 mM sodium tribasic phosphate. The solution was adjusted to about pH 8.1 using 1N HCl.
as §1
Sodium docusate (DSS) was prepared at a concentration of 20 mg/ml in water with gentle warming on a hot plate.
To each of 500 μL aliquots of the Val^8-GLP-1(7-37)OH solution in 3-ml glass vials were added 0, 3.3, 6.6 or 16.5 μL of the DSS solution followed by 15.8 μL of the preservative m-cresol solution. After gentle mixing of the components in the vials by hand swirling the pH of each clear solution was-adjusted to pH 7.8. Replicate samples were incubated at 4° C., ambient temperature, and 37° C. Within 4 hours at ambient temperature, the samples containing 0 or 3.3 μL of the DSS solution had become hazy due to peptide denaturation.
After incubation for 16 hours at 37° C., all four types of samples were clear. The solutions were then incubated at 4° C. Again, the solutions containing 0 or 3.3 μL of the DSS solutions became, and remained, hazy.
The solutions containing 6.6 μL or 16.5 μL of the DSS solution, which correspond to 2:1 and 10:1 molar ratios DSS to Val^8-GLP-1(7-37)OH, respectively, remained clear at 4° C. for at least 6 weeks.

[5] = Storage stability (solution clarity, HPLC purity) of preserved Val^8-GLP-1(7-37)OH formulation with DSS 2:1, Example 2; type: physicochemical; conditions: for solution appearance: DSS 2:1, m-cresol about 3.15 mg/ml; for HPLC purity after storage: DSS 2:1, m-cresol
Experimental: A formulation of the invention was prepared by dissolving Val^8-GLP-1(7-37)OH at about 1.0 mg/ml in an aqueous solution containing 16 mg/ml glycerin and 10 mM sodium tribasic phosphate. The solution was adjusted to about pH 8.0 using 5N HCl. The solution was then filtered through 0.2μ and 0.02μ filters. The peptide concentration was quantified by ultraviolet (UV) analysis at 280 nm.
6.5 ml of the Val^8-GLP-1 solution was added to 1.62 mg of solid DSS, which had been dried from a 100 mg/ml solution in absolute ethanol, to give a 2:1 molar ratio of DSS to Val^8-GLP-1. After gently stirring 15 minutes at ambient temperature the solution was added to 20.5 mg of m-cresol, which had been dried from a 100 mg/ml solution in absolute ethanol, to give a m-cresol concentration of about 3.15 mg/ml. After stirring 15 minutes at ambient temperature, the solution was adjusted to about pH 7.7 and passed through a 0.2μ filter. Portions of this formulation were stored at 4° C. and at ambient temperature.
After 18 weeks, the formulations maintained at 4° C. and at ambient temperature were examined. Both solutions were clear.

In the case of “GLP-1(7-37) (HAEGTFTSDVSSYLEGEAAKEFIAWLVKGRG; listed as Homo sapiens)”, the “reversion to alpha-helix conformation” value ([1]; GLP-1-DSS mixture, 2-day dialysis, CD study) is reported as “did not revert”.
In the case of Tween-40, the “clarity of Val^8-GLP-1 solution with added surfactant” value [2] is reported as “preserved solution clarity”.
With Tween-80 the “clarity of Val^8-GLP-1 solution with added surfactant” value [2] was “preserved solution clarity”.
With Val^8-GLP-1(7-37)OH the solution appearance ([2]; 4° C.) was “hazy”, the solution appearance ([2]; ambient temperature) was “hazy” and the “secondary structure upon binding of DSS” value ([1]; circular dichroism) was “converted from mostly alpha-helix to mostly a beta sheet”. For the same substance, the “insulinotropic-like activity versus Val^8-GLP-1 in phosphate buffer solution (PBS formulation)” value [3] was “comparable in potency”, the solution appearance ([4]; 0 μL DSS solution, incubated at 4° C. after 16 hours at 37° C.) was “hazy” and the solution appearance ([4]; 0 μL DSS solution, m-cresol, pH 7.8, within 4 hours at ambient temperature) was “hazy”. The solution appearance ([4]; 3.3 μL DSS solution, incubated at 4° C. after 16 hours at 37° C.) was “hazy”, the solution appearance ([4]; 3.3 μL DSS solution, m-cresol, pH 7.8, within 4 hours at ambient temperature) was “hazy” and the “time solution remained clear” value ([4]; 6.6 μL DSS solution (2:1 molar ratio DSS to peptide)) was “at least 6 weeks”. For the same substance, the “HPLC purity after storage” value ([4]; 6.6 μL DSS solution (2:1 molar ratio)) was 98.3%, the “time solution remained clear” value ([4]; 16.5 μL DSS solution (10:1 molar ratio DSS to peptide)) was “at least 6 weeks” and the “HPLC purity after storage” value ([4]; 16.5 μL DSS solution (10:1 molar ratio)) was 97.2%. For the same substance, the “solution stability on addition of DSS” value ([4]; DSS 2:1 molar vs. peptide, isotonic, pH 7.8, m-cresol) was “dramatically improved”, the solution appearance ([4]; all four sample types (0, 3.3, 6.6, 16.5 μL DSS solution), after incubation for 16 hours at 37° C.) was “clear” and the solution appearance ([5]; pH about 7.7, 18 weeks at 4° C.) was “clear”. For the same substance, the solution appearance ([5]; pH about 7.7, 18 weeks at ambient temperature) was “clear”, the “HPLC purity after storage” value ([5]; 18 weeks at 4° C.) was 98.3% and the “HPLC purity after storage” value ([5]; 18 weeks at ambient temperature) was 90.8%.
